Results taken from patent US20050069530A1.

T1: human type IIA sPLA2 (human), P14555
T1 chain: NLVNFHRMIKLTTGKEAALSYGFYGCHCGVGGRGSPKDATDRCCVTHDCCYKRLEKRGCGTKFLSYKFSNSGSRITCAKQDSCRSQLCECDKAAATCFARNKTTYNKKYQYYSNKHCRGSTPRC

T2: human recombinant cytosolic PLA2 (cPLA2) (human), P47712
T2 chain: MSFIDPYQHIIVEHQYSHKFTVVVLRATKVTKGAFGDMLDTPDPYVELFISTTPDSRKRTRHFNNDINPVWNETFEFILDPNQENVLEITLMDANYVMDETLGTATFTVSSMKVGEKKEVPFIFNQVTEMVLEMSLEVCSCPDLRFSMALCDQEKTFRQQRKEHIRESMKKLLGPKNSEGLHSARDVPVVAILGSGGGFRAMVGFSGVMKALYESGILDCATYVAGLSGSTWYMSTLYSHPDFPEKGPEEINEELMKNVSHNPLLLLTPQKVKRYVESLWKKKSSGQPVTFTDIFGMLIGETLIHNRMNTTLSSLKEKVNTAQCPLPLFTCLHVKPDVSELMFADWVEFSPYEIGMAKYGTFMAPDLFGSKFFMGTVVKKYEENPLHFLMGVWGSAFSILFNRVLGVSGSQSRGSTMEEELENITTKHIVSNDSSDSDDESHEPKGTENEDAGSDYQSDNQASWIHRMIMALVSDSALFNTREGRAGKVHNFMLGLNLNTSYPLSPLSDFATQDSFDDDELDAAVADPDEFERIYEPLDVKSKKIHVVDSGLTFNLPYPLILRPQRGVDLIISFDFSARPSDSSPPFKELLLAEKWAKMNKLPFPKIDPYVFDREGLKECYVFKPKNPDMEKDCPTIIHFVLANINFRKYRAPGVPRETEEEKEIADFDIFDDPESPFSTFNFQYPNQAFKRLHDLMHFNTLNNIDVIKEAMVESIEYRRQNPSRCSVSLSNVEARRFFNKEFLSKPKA

B1: P-NT.II (peptide)
peptide: LGRVDIHVWDGVYIRGR
modifications: not checked
B2: Scrambled P-NT.II (peptide)
peptide: YRRVDIGLRVWHDLGVG
modifications: not checked

Columns and labels:
Assay in all cases: cell-based or functional assay
crotoxin B, P62022 = molecular target: crotoxin B, P62022
[1] = molecular target: T1, human type IIA sPLA2 (human), P14555
[2] = molecular target: T2, human recombinant cytosolic PLA2 …

Binder	IC50 of PLA2 enzyme inhibition (labeled E. coli membrane assay) (crotoxin B, P62022) [µM]	IC50 of sPLA2 enzyme inhibition (3H-labelled E. coli membranes as substrate) [1] [µM]	selectivity of enzyme inhibition, sPLA2 over cPLA2 [2] [fold]
B1	4.9	5.3	5
B2	> 250	–	–
